{"source": "the DeepSol protein solubility set", "assay": "soluble on expression in E. coli; label from the status in PepcDB or PDB records", "data": [{"sequence": "MERVTVRMARSDRRTPWGFGVTEAPDGAVLIVNVIGGSLADRAGLRNGDVVDRLEDLDNLDINAVDRLLVTAHEKIELIVTRQPSGAATRIWRPEVTENTGPGQDQTPYRVNLQHSSDTRPPQGFNNSALPFETDQRVKHMQYNSPLGIYSDKSAAEQYVQQTQGLGDNSGARAAAQRQDEPAYLRSETLRLLKEQEHGSAGGAGTTLSNHPNPSGLPVCFMCTRPILGVMARAAGKNLHGDCLSCATCGNSLRNVGHHFIEDKFYCDIHGTQRKHGGRPGMDPNIFVKSSPTAAQPVHIQDSPRAAYHPQVNTARPVSVSPAPSAGSKTVTTHYHTPKTQGILSPGQRGVPTAAFGADLSKSVTYGGGVGPGGTHYDSNRLSPAPSQYSTQSRNQSQQHYQQHVVQAPPPVPSNPPPSNEQQSQSRVQNLPDSVRSAVSPRRSGKSPRQWPPPAMPTTNRYWQIDPADALKKEKVNYGEDLVALIKEVEQSKEKEPKVKKEPKKGTRGARRASNISKEQVQQAFEEQRKRTERKEIKKLEKEIKPKPELKVEVPVEPLVVPTSKPLEEPCPEALPPPKINDGIHWTVIHSPVLRSPSPAKVTSEAAIPESNGVVKPIPSYASQPIGISKTSTPQPFRPGSQVERPHYSSVGLKDVHAPVPLPRSPQHSPQPVQSYIVRSSDANVTTSTNLQTTVTRQYTENDNKSQFLQQPHPDTIDSSTSPIPTIRLNRHTKPEPSTPLSVPTVSINDIATSPIKITEPSRPWRASVSNSATSPIKIHESRVQPVDESRGLHRHEEKAQIETSTIKIHEPSSPPPSVHKFGAVNTRAAPAPVQFMQTPRIAVKIHEPTGPSPTPPSTPSHPIKRDPKHFKKVDFSKTSPTVIPEWKDSADIVDESDILTECSREDDSISFLKAATYDGDESEMIDNNIDNKSDITSTFDIEEEEVDVVQDRERIRVVGRKGGEGGEAEKQWRQRAMELLDDDAQTERDLRIVAALNERLQGLREMEDDDRVRAIECIARHQSELEQTQTQLSTLLESAIVYLQNLRPELELTEPIDNDAKSLETVKFEPTRAEQRVNEIRKKVLEDLEHLPILGDGMDSVPPPPPERKVFPFQSYQPIAPQFPVPAAESPVTQSLHDVLDEFYSLRKPTPTQNVAQSSDTTAEDSRNFLASRLGQVMIDENKKAGGSNGSSQHHNQQGSSYTKTSFERTTTETRPQQNTGAPRAGDFRGTGHLTTTTTTQQNGGRAPFCESCKQQIRGAFVLATGKSWCPEHFVCANSSCRRRLLECGFVEEDGQKFCESCFEQHIAPRCNKCSKPIISDCLNALQKKWHPTCFTCAHCQKPFGNSAFYLEQGLPYCEQDWNALFTTKCVSCRYPIEAGDRWVEALGNAFHSNCFTCARCNHNLEGESFFAKNGQPFCRLHA", "values": [{"measurement": "soluble on expression in E. coli", "result": "not soluble"}]}, {"sequence": "MGSDKIHHHHHHDKTVKENGRTLHNGIVLPEQWPPSMIDDGVRREMSLPYISNKPTVISVNLGRQLFVDDFLIAETDMERVSHKAMFYENNPVLAPDKEWEYTFERAPYAAPFSDGIWYDESEQKFKMWYLAGAGSMHKHRQSFYTCYAESKDGKHWEKVNMDIVPGTNIVDTCDRDAATVWLDKMCPEPEKRFKLFNVEKHSGGWKIILKYSKDGIHWSEGVAQSGPVGDRTTAFYNPFTQKWAISLRQGSKADGRSRGYLENEDPEMAVSVAHSLAKGIKDKNIVLWFTPSDKELPHPEFPDVRPAIYNFDAMPYESVMLGFYAMWKGPENDLCGKLGIQKRNEIGMGYSRDGFHFYRPSYEPVMGVNETEGAWNWGNMQSVIGVPLIVGDSLYLYSSGRMKNKVMWDGFTSTGLATLRRDGFVSMHTDTEGVLVTEKIKFDGNHFFVNAQAKDLQVEIMDENGNVITGFSREDCKEMNDLNSTKQLVTWKSGKKLAALSGKIVKVKFYVTCGDLYAFWISPWDTGESRGYTGGGGPGLNPCGIDIK", "values": [{"measurement": "soluble on expression in E. coli", "result": "not soluble"}]}, {"sequence": "MATVTKAPKKQIQFADDMQEFTKFPTKTGRRSLSRSISQSSTDSYSSAASYTDSSDDEVSPREKQQTNSKGSSNFCVKNIKQAEFGRREIEIAEQDMSALISLRKRAQGEKPLAGAKIVGCTHITAQTAVLIETLCALGAQCRWSACNIYSTQNEVAAALAEAGVAVFAWKGESEDDFWWCIDRCVNMDGWQANMILDDGGDLTHWVYKKYPNVFKKIRGIVEESVTGVHRLYQLSKAGKLCVPAMNVNDSVTKQKFDNLYCCRESILDGLKRTTDVMFGGKQVVVCGYGEVGKGCCAALKALGAIVYITEIDPICALQACMDGFRVVKLNEVIRQVDVVITCTGNKNVVTREHLDRMKNSCIVCNMGHSNTEIDVTSLRTPELTWERVRSQVDHVIWPDGKRVVLLAEGRLLNLSCSTVPTFVLSITATTQALALIELYNAPEGRYKQDVYLLPKKMDEYVASLHLPSFDAHLTELTDDQAKYLGLNKNGPFKPNYYRY", "values": [{"measurement": "soluble on expression in E. coli", "result": "not soluble"}]}, {"sequence": "MIVPKGNENIRPGYAMEPKYITIHETANTSKGANALNHAKYLDNQARGNTDRSASWHFTVDDKEIYQHLPLNEVGWHAGNKTGNYESIGIEIAVNSDGNYTKAVENAKKLAAYLMNELNISLDHVQKHQFWSGKNCPAFMIQRGQWDAFLKGTNAYYNEHHKDVIPPPEVPHEKDDITGGWYEQDIRQLAARKIMFGDGNGSYWPNRLVTRAEFANLMSRALNLPAGNAKFTDLNEAHPSLVDGINRAASAGIINGRGNNKFDPNATITRDEAVIMIDRALEYNWIYRKEVKLPFTDQHLAYDKKALQNVYAYGIVKGNERNEFVPKGTATRAESAAFLNRMLKVIEA", "values": [{"measurement": "soluble on expression in E. coli", "result": "not soluble"}]}, {"sequence": "MGAQSHSLEITSSVSAEKIFSGIVLDVDTVIPKAATGAYKSVEVKGDGGAGTVRIITLPEGSPITTMTVRTDAVNKEALSYDSTVIDGDILLGFIESIETHMVVVPTADGGSITKTTAIFHTKGDAVVPEENIKFADAQNTALFKAIEAYLIAN", "values": [{"measurement": "soluble on expression in E. coli", "result": "soluble"}]}, {"sequence": "MGSDKIHHHHHHMSMNSEPTPAEAFFLEGNRLLAASECRAAEACFREALALAPDFAEAHANLGMLLDQEGMAAEAERQYRLALALNPRLGHTHSNLGVLLANQKRFEEAESAYLSAIELEPDSPAAWSNLGVLQACRKQEREAEESYRTALRLDPDYHRASFNLSYLLLRQGRFDEGWSLLESRNRRWFARLEEHLPCPRWRGEDLQGRSLLIGLEAGHGDMIQFCRYAPLLKDRGAARITLVCHVALKDLLKTLDGVDTVISFDEILPDDAWDFWTPAMSIPCYCRTRLDSIPARIPYLHADPGLAEQWAAMLEREWAGPEMRIGLAWKGNPHFENDGDRSLPHLKTLEPLGAVAGVRFFSLQKGAGEEEAAQPPAGLPVVNLMRHIAGFADTAALVANLDLVITVDTAVAHLAGALGTECWVLLPEYRTDWRWLTGRTDSPWYPGVMRLFRQPRVGDWETVVAEVGEALRLFAARPRSPRGTR", "values": [{"measurement": "soluble on expression in E. coli", "result": "not soluble"}]}, {"sequence": "KMPVTAGLTVEKKINKHLAVETGLLYSNLRAEQNLHYLGIPVKLNVTLAETPKFDLYASVGGVADKCIAGAPDNSFKNEPVQLALTAGVGMNYKINDKLALFAEPG", "values": [{"measurement": "soluble on expression in E. coli", "result": "not soluble"}]}, {"sequence": "MAVVRRAVAARGLQMIAKPLTVVPGFDVWPGLLDISAQRALVEAVLAGAEQAPFSNYRTAYGKPMSVAMTALGSLGWTSDARGYRYVDRHPETGRPWPDMPPALLDLWTVLGDPETPPDSCLVNLYRDGARMGLHQDRDEADPRFPVLSISLGDTAVFRIGGVNRKDPTRSLRLASGDVCRLLGPARLAFHGVDRILPGSSSLVPGGGRINLTLRRARTALEHHHHHH", "values": [{"measurement": "soluble on expression in E. coli", "result": "not soluble"}]}, {"sequence": "PVMHPHGAPPNHRPWQMKDLQAIKQEVSQAAPGSPQFMQTIRLAVQQFDPTAKDLQDLLQYLCSSLVASLHHQQLDSLISEAETRGITSYNPLAGPLRVQANNPQQQGLRREYQQLWLAAFAALPGSAKDPSWA", "values": [{"measurement": "soluble on expression in E. coli", "result": "soluble"}]}, {"sequence": "MSLYEPADGILETHVTWEDVEKDLQQSLGTRATFGENKRATNISDLKGFMSRIACLEPDWQNIEEGKELPSKFALKISSQLALVALSKIMNFEEGAGFSEEKLKKFSSLTKECHNREVDAYKVLMKFNHPDIPYTKGYMIIDFVPNIQTVEMYKSISADTIIPIIRGVATFSALGERLSKEDQHFVMGPTYLEMIFEDFFNDVELKKKFDTLRTTFEETENQEKVEKLITVFEHYKSLVKKYTNISDILGVKLVLNHGDLSQPNVLFSLDPQNKLKLEAIIDWQCVSRMPPGLDTARLLLGCLSGQERRERGTELLKVYHETYTSVFGEELFTFQELQELFNLFAPMMAMMLLPVMPSSIQSAIIPEEDKVSALKEVKTKMIAMMEDILEIHDNNLNHFSDFMKI", "values": [{"measurement": "soluble on expression in E. coli", "result": "not soluble"}]}, {"sequence": "MSLQYQVVPVTAFAQNCSIVWCDETMEGIVVDPGGDVKQLAMLIAELGVKVTQLVLTHGHLDHVGGTQSLAQALGGTRVVGPHKADNFWLQGLEGQSKMFGFPLTEAFEPDEWLDDGDVIHFGQQTLQVIHTPGHTPGHVVLFSEAARLAFVGDVLFNGSIGRTDFPQGDFNTLIASIKNKLWPLGSDVTFIPGHGPQSTFGRERASNPFVADEMPLY", "values": [{"measurement": "soluble on expression in E. coli", "result": "not soluble"}]}, {"sequence": "MSSGYSSLEEDEDFFFTARTSFFRRAPPGKSRSGQPDVEKEKETHNYLSKEEIKEKVHKYNSAVTDKLKMTLNSNGIYTGFIKVQMELCKPAQPSPEPSSGGCMNTLHISSTNTVGEVIEALLRKFLVTESPTKFALYKRCHREDQVYACKLSDREHPLYLRLVAGPRTDTLSFVLREHEIGEWEAFSLPELQNFLRILDKEEDEQLQSLKRRYTAYRQKLEEALGEVWKPG", "values": [{"measurement": "soluble on expression in E. coli", "result": "not soluble"}]}, {"sequence": "AHPELKSSVPQADSAVAAPEKIQLNFSENLTVKFSGAKLTMTGMKGMSSHSPMPVAAKVAPGADPKSMVIIPREPLPAGTYRVDWRAVSSDTHPITGNYTFTVK", "values": [{"measurement": "soluble on expression in E. coli", "result": "soluble"}]}, {"sequence": "MGSDKIHHHHHHMHIDIDWQNVDTVLLDMDGTLLDLAFDNYFWQKLVPETYGAQQGISPQDAQEYIRQQYHAVQHTLNWYCLDYWSERLGLDICAMTTAQGPRAVLRDDTVPFLNALKASGKRRILLTNAHPHNLAVKLEHTGLASHLDLLLSTHTFGYPKEDQRLWRAVTEETGISAEKTLFIDDSEPILDAAARFGIRYCLGVTNPDSGLAEKHYTRHPSLNDYRRLIPSLM", "values": [{"measurement": "soluble on expression in E. coli", "result": "not soluble"}]}, {"sequence": "MSLTPPRSLLHALKPFLEAGADKEALVFGAHRISFGDMAGHAAALAEVLRSKGVQKGDRVAALFPPRPEAILSLLACWLIGATWMGINPRYQRREQAQILADAGVKVLMSMTRIGKRDLEDDLASHETDLGFSVLRFAPAFAPAALPEKLPYDEVLRRWREATETLEPDSPSVVIYTSGSTGKPKGALITHAGLAFRSHTLHIDRFNLPAPTQLIDLPVNHIGALASGIGVAMASGGKMILSEQFDPGVTLRTAFAEKLAIISGVPAMLARLVEHPDFATSDLSSVKAISWGAGPINEAVLRKLLNATDALFSQQYGMTESNGPIVFTPPTRDVEVLLNTTGKPDPRLELRIADESGQPLPDGEEGEVQIRHPHPFAGYLGNAEASAAAFTADGFLHTGDLAMVREDGYLVFCGRSKEMYKSGGFNVYPREIEIALEAHPAIRAAAVLGVDDEQWGQVGHAFVELASPLTSDDITGWCKARLADFKVPKRVSVIDAMPRTPVDKVDRMQLAELAARGEGHHHHHH", "values": [{"measurement": "soluble on expression in E. coli", "result": "soluble"}]}, {"sequence": "MNEFEIGLMSYLGREKLEKLGKVKVGIAGAGGLGSNCALHLVRSGFKNLKIVDFDVVEPSNLNRQFFFLDQLGRPKVLALKENLARINPDVMIEAIQQKVDRNNAKQLFDDCDAVVEAFDKVECKTMMAEAFASSGKFFVCASGLAGWGNSDEIRIRKVHDRFYIVGDFVTGVKEGIPPISPRVNIAAAKQADLILSFFLDDADNTVNVNCQEGLEHHHHHH", "values": [{"measurement": "soluble on expression in E. coli", "result": "soluble"}]}, {"sequence": "MSWFLLNRNLTLLEPYDWKLSRTVLRGERGSNASDLPGKAIAKEGMADYIRYLFKTVRKFYGEAVVVTQEVDDIISSPIVKESIVNNSDCKILLDQRKYLNKFSQIQSLLGLTDKEKAQILSVNMSNDPRRKYKEVWFGLGGVQSTVYATEVSLEEYLCYSTEESEKVELEGLTKELGGNIELAIRRLAEKKRNQNNEIP", "values": [{"measurement": "soluble on expression in E. coli", "result": "not soluble"}]}]}
